The target in this assay is F-actin (filamentous actin) of the Actin Binding Protein Biochem Kit (BK013, Cytoskeleton) (UniProt P60709). Briefly: co-sedimentation; F-actin spin-down assay with the Actin Binding Protein Biochem Kit (BK013, Cytoskeleton), according to manufacturer instructions; ultracentrifugation, SDS-PAGE, Coomassie staining, signals quantified.

Drawing on article PMC4899731, this text covers percent detected in the pellet with F-actin for one substance.

For “cyclin A2-GST (glutathione S-transferase) (from UniProt P20248 1-432) (natural protein)”, the percent detected in the pellet with F-actin is 37%.
